Measurements as given in patent US20220056111A1 (YUROGEN BIOSYSTEMS, published 2022).

T1: HcoV-229E S protein (HcoV-229E, UniProt P15423 16-1115)
T1 sequence: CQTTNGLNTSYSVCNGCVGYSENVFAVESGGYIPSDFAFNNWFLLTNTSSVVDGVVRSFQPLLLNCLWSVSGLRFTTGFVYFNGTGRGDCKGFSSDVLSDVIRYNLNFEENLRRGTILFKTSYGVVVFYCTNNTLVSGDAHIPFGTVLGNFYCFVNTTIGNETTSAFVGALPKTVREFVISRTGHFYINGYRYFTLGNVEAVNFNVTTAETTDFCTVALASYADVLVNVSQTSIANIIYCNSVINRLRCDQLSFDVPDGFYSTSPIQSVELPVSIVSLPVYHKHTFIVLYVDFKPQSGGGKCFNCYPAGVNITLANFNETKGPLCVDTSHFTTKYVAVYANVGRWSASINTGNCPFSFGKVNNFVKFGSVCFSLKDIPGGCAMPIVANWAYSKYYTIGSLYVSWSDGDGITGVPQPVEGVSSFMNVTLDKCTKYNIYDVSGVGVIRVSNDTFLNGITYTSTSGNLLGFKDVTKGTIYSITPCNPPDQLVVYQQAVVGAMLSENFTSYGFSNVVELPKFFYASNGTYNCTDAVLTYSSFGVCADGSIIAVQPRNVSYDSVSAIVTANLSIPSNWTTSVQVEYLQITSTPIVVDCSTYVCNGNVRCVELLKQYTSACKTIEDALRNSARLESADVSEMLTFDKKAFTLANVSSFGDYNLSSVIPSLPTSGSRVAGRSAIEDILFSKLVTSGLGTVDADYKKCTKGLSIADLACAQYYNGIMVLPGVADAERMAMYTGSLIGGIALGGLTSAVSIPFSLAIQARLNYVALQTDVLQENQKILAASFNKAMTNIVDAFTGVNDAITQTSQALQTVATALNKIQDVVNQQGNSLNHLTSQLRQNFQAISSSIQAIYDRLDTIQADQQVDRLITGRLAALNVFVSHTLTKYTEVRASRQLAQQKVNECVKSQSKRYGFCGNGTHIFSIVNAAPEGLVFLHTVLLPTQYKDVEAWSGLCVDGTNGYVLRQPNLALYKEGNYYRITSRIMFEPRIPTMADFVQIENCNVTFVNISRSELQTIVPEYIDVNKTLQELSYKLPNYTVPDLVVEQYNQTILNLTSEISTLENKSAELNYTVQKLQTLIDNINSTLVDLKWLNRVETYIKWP

T2: HcoV-OC43 S protein (HcoV-OC43, UniProt P36334 14-1297)
T2 sequence: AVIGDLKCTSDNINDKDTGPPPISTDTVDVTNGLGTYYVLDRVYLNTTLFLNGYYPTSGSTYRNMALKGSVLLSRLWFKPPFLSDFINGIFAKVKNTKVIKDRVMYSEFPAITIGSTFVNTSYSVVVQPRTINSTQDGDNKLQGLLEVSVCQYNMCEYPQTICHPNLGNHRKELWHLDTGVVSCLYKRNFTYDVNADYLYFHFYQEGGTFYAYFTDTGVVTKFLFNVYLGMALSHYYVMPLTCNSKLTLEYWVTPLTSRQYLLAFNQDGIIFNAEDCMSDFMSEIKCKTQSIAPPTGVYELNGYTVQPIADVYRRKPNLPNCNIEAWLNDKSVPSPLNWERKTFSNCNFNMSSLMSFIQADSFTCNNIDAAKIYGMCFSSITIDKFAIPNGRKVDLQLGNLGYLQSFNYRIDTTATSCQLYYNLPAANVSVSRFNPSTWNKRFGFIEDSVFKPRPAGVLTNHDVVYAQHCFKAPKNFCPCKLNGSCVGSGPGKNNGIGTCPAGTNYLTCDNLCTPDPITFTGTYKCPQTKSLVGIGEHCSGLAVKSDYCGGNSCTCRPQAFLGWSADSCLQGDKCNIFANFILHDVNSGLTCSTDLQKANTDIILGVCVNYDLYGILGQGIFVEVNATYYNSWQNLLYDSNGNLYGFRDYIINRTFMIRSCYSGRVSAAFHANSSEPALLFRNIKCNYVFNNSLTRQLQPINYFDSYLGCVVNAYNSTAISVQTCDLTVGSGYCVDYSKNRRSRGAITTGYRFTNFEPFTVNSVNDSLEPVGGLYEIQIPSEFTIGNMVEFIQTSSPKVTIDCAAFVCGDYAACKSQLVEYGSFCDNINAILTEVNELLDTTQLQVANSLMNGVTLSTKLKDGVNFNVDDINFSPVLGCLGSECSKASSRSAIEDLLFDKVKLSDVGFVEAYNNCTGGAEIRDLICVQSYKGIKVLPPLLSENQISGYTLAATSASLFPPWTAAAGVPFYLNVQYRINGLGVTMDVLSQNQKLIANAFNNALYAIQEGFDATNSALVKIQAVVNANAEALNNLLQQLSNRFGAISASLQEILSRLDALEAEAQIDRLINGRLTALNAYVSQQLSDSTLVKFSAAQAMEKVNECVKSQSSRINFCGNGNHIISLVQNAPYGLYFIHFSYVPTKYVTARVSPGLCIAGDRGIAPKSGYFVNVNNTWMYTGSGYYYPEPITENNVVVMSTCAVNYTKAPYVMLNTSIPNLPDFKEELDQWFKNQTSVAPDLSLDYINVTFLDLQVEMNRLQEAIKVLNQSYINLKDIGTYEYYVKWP

T3: HcoV-NL63 S protein (HcoV-NL63, UniProt Q6Q1S2 19-1296)
T3 construct: also called hCov-NL63 S1
T3 sequence: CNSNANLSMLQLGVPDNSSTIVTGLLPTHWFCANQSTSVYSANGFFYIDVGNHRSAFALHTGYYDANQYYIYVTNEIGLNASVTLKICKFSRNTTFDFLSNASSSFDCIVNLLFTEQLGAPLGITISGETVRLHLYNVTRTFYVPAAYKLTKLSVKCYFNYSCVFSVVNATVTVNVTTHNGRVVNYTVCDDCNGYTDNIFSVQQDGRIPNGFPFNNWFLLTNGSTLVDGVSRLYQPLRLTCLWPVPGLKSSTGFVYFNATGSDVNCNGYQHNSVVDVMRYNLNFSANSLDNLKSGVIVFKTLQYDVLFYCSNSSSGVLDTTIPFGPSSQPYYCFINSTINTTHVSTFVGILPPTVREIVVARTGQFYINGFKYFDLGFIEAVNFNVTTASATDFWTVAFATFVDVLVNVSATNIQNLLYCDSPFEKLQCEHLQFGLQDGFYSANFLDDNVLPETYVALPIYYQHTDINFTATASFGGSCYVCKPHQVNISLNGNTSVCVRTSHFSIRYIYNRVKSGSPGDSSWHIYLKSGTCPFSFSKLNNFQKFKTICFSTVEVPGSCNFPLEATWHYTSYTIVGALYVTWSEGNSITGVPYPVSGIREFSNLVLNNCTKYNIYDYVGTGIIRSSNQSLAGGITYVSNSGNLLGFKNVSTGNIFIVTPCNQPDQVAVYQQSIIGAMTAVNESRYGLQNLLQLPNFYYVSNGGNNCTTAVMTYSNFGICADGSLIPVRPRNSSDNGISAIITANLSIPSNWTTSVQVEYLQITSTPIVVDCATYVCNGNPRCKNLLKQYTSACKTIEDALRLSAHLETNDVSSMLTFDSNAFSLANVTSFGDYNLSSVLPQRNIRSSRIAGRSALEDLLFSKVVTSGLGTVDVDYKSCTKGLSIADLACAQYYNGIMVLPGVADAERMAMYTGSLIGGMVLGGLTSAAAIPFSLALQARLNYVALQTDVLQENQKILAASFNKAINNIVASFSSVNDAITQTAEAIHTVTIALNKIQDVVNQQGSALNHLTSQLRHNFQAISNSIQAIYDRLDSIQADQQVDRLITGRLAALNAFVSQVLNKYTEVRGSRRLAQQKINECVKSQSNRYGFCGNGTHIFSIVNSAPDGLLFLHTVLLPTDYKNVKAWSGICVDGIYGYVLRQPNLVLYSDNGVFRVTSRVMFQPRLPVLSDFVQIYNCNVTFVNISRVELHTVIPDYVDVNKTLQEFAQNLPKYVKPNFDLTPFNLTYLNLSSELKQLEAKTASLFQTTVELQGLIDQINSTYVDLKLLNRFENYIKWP


Assays:
HcoV-229E S protein = molecular target: T1, HcoV-229E S protein; assay: direct ELISA, OD450
HcoV-OC43 S protein = molecular target: T2, HcoV-OC43 S protein; assay: direct ELISA, OD450
HcoV-NL63 S protein = molecular target: T3, HcoV-NL63 S protein; assay: direct ELISA, OD450
[1] = molecular target: SARS-CoV-2 Spike S1 protein (SARS-CoV-2, UniProt P0DTC2 16-685)
[2] = molecular target: RBD (receptor binding domain) of the SARS-CoV-2 S1 (SARS-CoV-2, UniProt P0DTC2 319-541)

Binder | binding result (HcoV-229E S protein) | binding result (HcoV-OC43 S protein) | binding result (HcoV-NL63 S protein) | Kd [1] [nM] | koff [1] [s⁻¹] | kon [1] [M⁻¹ s⁻¹] | EC50 (read off the curve) [2] [µg/mL]
rabbit monoclonal antibody 5E1 against the SARS-CoV-2 S1 (antibody, V domains shown) VH: QSVEESGGRLVTPGTPLTLTCTVSGIDLSSYAMGWVRQAPGKGLEYIGIIYISGLTYYASWAKGRFTISKTSTTVDLKIPSPTTEDTATYFCARGEYNSHSHYLLWGPGTLVTVSS VL: AYDMTQTPSSVSEPVGGTVSIKCQASQNIYSNLAWYQQKPGQRPKLLIYDASQLASGVPSRFKGSGSGTEYTLTISGVECADAATYYCQQGFESSDIFNVFGGGTEVVVKG | no binding | no binding | no binding | ≤ 0.138 | ≤ 1e-05 | 72300 | –
rabbit monoclonal antibody 9H1 against the SARS-CoV-2 S1 (antibody, V domains shown) VH: QSVEESGGRLVTPGTPLTLTCTVSGFSLSRYAMSWVRQAPGKGLEWIGIIVDSGHTAYASWAKGRFTISRTSTTVDLKMTSLTTEDTATYFCARETGGGAFYVFEFWGPGTVVTVSS VL: AQVLTQTPSSVSAAVGGTVTINCQASEDIYDNLVWYQQKPGQPPKLLIYDASTLAFGVSSRFRGSGSGTHFTLTMRDVQCDDAATYYCQGEFSCSSGDCTAFGGGTEVVVKG | no binding | no binding | no binding | 0.769 | 0.00025 | 325000 | ~0.02
